The numbers were not newly measured in patent US12453725B2, “Treatment of inflammatory disease” (Celleron Therapeutics Limited, priority 2019, dated 2025), which cites them from elsewhere.

The conditions of data set [1]: human, in vivo, cited from earlier work.
The conditions of data set [2]: human, in vivo; cited from earlier work.
For data set [3] the following is noted: in vivo; cited from earlier work.

In the case of “ipilimumab: approved checkpoint inhibitor monoclonal antibody targeting CTLA-4”, in data set [1] (5 mg/kg), the “incidence of grade 3/4 colitis” value is given as 13%. In data set [1], the “enterocolitis (grade 3 or 4 symptoms and/or biopsy proven)” value was 21% and the “grade 3/4 diarrhoea, patients” value is on record as 10%.
Turning to “nivolumab: human monoclonal antibody that blocks the interaction between PD-1 and its ligands, PD-L1 and PD-L2; IgG4 kappa immunoglobulin”, the “grade 3/4 diarrhoea, patients” value in data set [1] is 1%-2%. Also, in data set [2], the abnormal liver tests result is listed as “clinical trials, between 7 patients in 100 had abnormal liver”; the diarrhoea or colitis entry is on record as “nivolumab clinical trials, 13 patients in 100 developed”; the “disorders of hormone-producing glands” value is recorded as “trials, 10 patients in 100 developed disorders of hormone-”; the “immune-related colitis, patients” value was 13%. For the same substance, in data set [2], the kidney inflammation entry is “nivolumab clinical trials, 3 patients in 100 developed kidney”; the lung inflammation entry is recorded as “clinical trials, 3 patients in 100 developed lung”; the rash entry was “between 26 patients in 100 developed rash. Signs or”.
In the case of “pembrolizumab: humanized IgG4 monoclonal antibody that binds the programmed cell death-1 receptor”, the “colitis, listed frequency of GI side effect” value in data set [3] is “common”. Further, in data set [1], the “grade 3/4 diarrhoea, patients” value was 1%-2%.
